Earlier results as cited in paper PMC7561359.

Biological target: IFNAR1 (Homo sapiens) (UniProt P17181)
Sequence of UniProt P17181 (P17181 28-436): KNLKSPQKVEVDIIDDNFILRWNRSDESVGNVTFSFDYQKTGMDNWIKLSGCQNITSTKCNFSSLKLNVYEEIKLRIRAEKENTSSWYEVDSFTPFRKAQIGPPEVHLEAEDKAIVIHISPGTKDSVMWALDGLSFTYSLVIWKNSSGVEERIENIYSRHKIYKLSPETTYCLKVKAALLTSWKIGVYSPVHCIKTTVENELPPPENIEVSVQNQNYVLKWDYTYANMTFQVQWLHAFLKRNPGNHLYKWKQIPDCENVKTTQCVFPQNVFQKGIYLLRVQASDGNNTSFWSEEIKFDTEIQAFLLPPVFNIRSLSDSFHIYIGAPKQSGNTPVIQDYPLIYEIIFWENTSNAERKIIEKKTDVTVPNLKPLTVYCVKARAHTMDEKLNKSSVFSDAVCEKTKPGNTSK

Substance: IFNβ (from UniProt P01574)
- Kd: 100 nM
